Laboratory results: doi:10.1101/2020.09.12.286559 (bioRxiv, 2020)

Key:
[1] = biological target: T1, Recombinant N-terminal His6-tagged TRF1 (human), P54274; assay: AFM volume analysis; settings: remark: other sources report otherwise
T1 chain: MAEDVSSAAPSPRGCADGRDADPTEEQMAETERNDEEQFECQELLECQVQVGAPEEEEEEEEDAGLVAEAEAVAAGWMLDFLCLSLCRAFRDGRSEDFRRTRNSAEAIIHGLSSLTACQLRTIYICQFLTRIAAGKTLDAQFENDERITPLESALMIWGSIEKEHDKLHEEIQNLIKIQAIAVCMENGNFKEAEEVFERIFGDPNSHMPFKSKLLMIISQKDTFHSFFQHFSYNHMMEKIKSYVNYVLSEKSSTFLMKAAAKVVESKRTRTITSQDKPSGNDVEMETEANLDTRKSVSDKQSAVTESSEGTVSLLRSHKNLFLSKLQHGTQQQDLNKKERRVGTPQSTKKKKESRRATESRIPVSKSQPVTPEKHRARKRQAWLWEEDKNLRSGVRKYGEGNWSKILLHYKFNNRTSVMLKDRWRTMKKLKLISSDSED

[2] = biological target: T2, N-terminal HA-tagged TIN2L (HA-TIN2L, 1-451 aa) (human, UniProt Q9BSI4-1 1-451); assay: native gel or EMSA
T2 sequence: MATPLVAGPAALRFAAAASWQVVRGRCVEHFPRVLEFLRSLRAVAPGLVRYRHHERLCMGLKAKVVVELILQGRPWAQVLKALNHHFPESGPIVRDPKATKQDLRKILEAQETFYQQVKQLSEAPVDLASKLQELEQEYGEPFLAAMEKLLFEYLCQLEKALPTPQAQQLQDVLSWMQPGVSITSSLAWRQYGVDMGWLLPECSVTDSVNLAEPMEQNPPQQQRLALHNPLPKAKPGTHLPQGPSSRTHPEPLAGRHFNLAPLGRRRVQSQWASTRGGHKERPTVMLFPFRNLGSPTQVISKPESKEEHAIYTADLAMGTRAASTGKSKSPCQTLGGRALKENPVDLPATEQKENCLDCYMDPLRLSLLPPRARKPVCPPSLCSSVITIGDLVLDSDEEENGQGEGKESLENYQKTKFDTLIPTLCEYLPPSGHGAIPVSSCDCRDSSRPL

B1: Recombinant N-terminal His6-tagged TRF1 (natural protein)
chain: MAEDVSSAAPSPRGCADGRDADPTEEQMAETERNDEEQFECQELLECQVQVGAPEEEEEEEEDAGLVAEAEAVAAGWMLDFLCLSLCRAFRDGRSEDFRRTRNSAEAIIHGLSSLTACQLRTIYICQFLTRIAAGKTLDAQFENDERITPLESALMIWGSIEKEHDKLHEEIQNLIKIQAIAVCMENGNFKEAEEVFERIFGDPNSHMPFKSKLLMIISQKDTFHSFFQHFSYNHMMEKIKSYVNYVLSEKSSTFLMKAAAKVVESKRTRTITSQDKPSGNDVEMETEANLDTRKSVSDKQSAVTESSEGTVSLLRSHKNLFLSKLQHGTQQQDLNKKERRVGTPQSTKKKKESRRATESRIPVSKSQPVTPEKHRARKRQAWLWEEDKNLRSGVRKYGEGNWSKILLHYKFNNRTSVMLKDRWRTMKKLKLISSDSED
B1 was tested, and the stoichiometry N [1] was 2 and the binding result [2] was “binds”.
